B1: Flag-DDX46 (natural protein)
chain: MGRESRHYRKRSASRGRSGSRSRSRSPSDKRSKRGDDRRSRSRDRDRRRERSRSRDKRRSRSRDRKRLRRSRSRERDRSRERRRSRSRDRRRSRSRSRGRRSRSSSPGNKSKKTENRSRSKEKTDGGESSKEKKKDKDDKEDEKEKDAGNFDQNKLEEEMRKRKERVEKWREEQRKKAMENIGELKKEIEEMKQGKKWSLEDDDDDEDDPAEAEKEGNEMEGEELDPLDAYMEEVKEEVKKFNMRSVKGGGGNEKKSGPTVTKVVTVVTTKKAVVDSDKKKGELMENDQDAMEYSSEEEEVDLQTALTGYQTKQRKLLEPVDHGKIEYEPFRKNFYVEVPELAKMSQEEVNVFRLEMEGITVKGKGCPKPIKSWVQCGISMKILNSLKKHGYEKPTPIQTQAIPAIMSGRDLIGIAKTGSGKTIAFLLPMFRHIMDQRSLEEGEGPIAVIMTPTRELALQITKECKKFSKTLGLRVVCVYGGTGISEQIAELKRGAEIIVCTPGRMIDMLAANSGRVTNLRRVTYVVLDEADRMFDMGFEPQVMRIVDNVRPDRQTVMFSATFPRAMEALARRILSKPIEVQVGGRSVVCSDVEQQVIVIEEEKKFLKLLELLGHYQESGSVIIFVDKQEHADGLLKDLMRASYPCMSLHGGIDQYDRDSIINDFKNGTCKLLVATSVAARGLDVKHLILVVNYSCPNHYEDYVHRAGRTGRAGNKGYAYTFITEDQARYAGDIIKALELSGTAVPPDLEKLWSDFKDQQKAEGKIIKKSSGFSGKGFKFDETEQALANERKKLQKAALGLQDSDDEDAAVDIDEQIESMFNSKKRVKDMAAPGTSSVPAPTAGNAEKLEIAKRLALRINAQKNLGIESQDVMQQATNAILRGGTILAPTVSAKTIAEQLAEKINAKLNYVPLEKQEEERQDGGQNESFKRYEEELEINDFPQTARWKVTSKEALQRISEYSEAAITIRGTYFPPGKEPKEGERKIYLAIESANELAVQKAKAEITRLIKEELIRLQNSYQPTNKGRYKVL
notes: DDX46, human; source: HEK293F, overexpressed, purified (anti-Flag M2, Hitrap Heparin)
B2: Flag-DDX42 (full-length) (natural protein)
chain: MNWNKGGPGTKRGFGFGGFAISAGKKEEPKLPQQSHSAFGATSSSSGFGKSAPPQLPSFYKIGSKRANFDEENAYFEDEEEDSSNVDLPYIPAENSPTRQQFHSKPVDSDSDDDPLEAFMAEVEDQAARDMKRLEEKDKERKNVKGIRDDIEEEDDQEAYFRYMAENPTAGVVQEEEEDNLEYDSDGNPIAPTKKIIDPLPPIDHSEIDYPPFEKNFYNEHEEITNLTPQQLIDLRHKLNLRVSGAAPPRPGSSFAHFGFDEQLMHQIRKSEYTQPTPIQCQGVPVALSGRDMIGIAKTGSGKTAAFIWPMLIHIMDQKELEPGDGPIAVIVCPTRELCQQIHAECKRFGKAYNLRSVAVYGGGSMWEQAKALQEGAEIVVCTPGRLIDHVKKKATNLQRVSYLVFDEADRMFDMGFEYQVRSIASHVRPDRQTLLFSATFRKKIEKLARDILIDPIRVVQGDIGEANEDVTQIVEILHSGPSKWNWLTRRLVEFTSSGSVLLFVTKKANAEELANNLKQEGHNLGLLHGDMDQSERNKVISDFKKKDIPVLVATDVAARGLDIPSIKTVINYDVARDIDTHTHRIGRTGRAGEKGVAYTLLTPKDSNFAGDLVRNLEGANQHVSKELLDLAMQNAWFRKSRFKGGKGKKLNIGGGGLGYRERPGLGSENMDRGNNNVMSNYEAYKPSTGAMGDRLTAMKAAFQSQYKSHFVAASLSNQKAGSSAAGASGWTSAGSLNSVPTNSAQQGHNSPDSPVTSAAKGIPGFGNTGNISGAPVTYPSAGAQGVNNTASGNNSREGTGGSNGKRERYTENRGSSRHSHGETGNRHSDSPRHGDGGRHGDGYRHPESSSRHTDGHRHGENRHGGSAGRHGENRGANDGRNGESRKEAFNRESKMEPKMEPKVDSSKMDKVDSKTDKTADGFAVPEPPKRKKSRWDS
notes: DDX42, human, full-length cDNA; N-plug residues 69-81, helix alpha-3 114-135, helices alpha-2/alpha-1 145-167, helicase domain 207-643; source: HEK293F, transfected (pCAG): co-expressed with the SF3b core; alone as bait in lysate; not shown: Flag, N-terminal, kept

Biological target: T1, SF3b core complex, 6xHis-tagged (SF3B1 454–1304, 6xHis-SF3B3, SF3B5, PHF5A) (human, UniProt O75533 454-1304; Q15393 1-1217; Q9BWJ5 1-86; Q7RTV0 1-110)
T1 construct: SF3B1, human, residues 454-1304; SF3B3, human, full-length cDNA; SF3B5, human, full-length cDNA; PHF5A, human, full-length cDNA; the 6xHis tag replaces the N-terminal Twin-Strep tag of SF3B3, so it is probably N-terminal; also called SF3b core (6xHis-tagged); source: HEK293F, co-transfected, purified; prepared as the SF3b core except that the Strep-tag on SF3B3 was replaced by a 6xHis tag; …
Assay: BLI; 6xHis-tagged SF3b core (20 µg/mL) captured on Ni-NTA biosensors; Flag-DDX42 or Flag-DDX46 as analyte; lysis buffer (20 mM HEPES-KOH pH 7.9, 150 mM NaCl, 1.5 mM MgCl2, 0.05% NP-40); about 100 s association, 100 s dissociation; 1:1 model; apparent constants
Conditions: both partners purified

T1 sequence (O75533 454-1304, chain 1 of 4): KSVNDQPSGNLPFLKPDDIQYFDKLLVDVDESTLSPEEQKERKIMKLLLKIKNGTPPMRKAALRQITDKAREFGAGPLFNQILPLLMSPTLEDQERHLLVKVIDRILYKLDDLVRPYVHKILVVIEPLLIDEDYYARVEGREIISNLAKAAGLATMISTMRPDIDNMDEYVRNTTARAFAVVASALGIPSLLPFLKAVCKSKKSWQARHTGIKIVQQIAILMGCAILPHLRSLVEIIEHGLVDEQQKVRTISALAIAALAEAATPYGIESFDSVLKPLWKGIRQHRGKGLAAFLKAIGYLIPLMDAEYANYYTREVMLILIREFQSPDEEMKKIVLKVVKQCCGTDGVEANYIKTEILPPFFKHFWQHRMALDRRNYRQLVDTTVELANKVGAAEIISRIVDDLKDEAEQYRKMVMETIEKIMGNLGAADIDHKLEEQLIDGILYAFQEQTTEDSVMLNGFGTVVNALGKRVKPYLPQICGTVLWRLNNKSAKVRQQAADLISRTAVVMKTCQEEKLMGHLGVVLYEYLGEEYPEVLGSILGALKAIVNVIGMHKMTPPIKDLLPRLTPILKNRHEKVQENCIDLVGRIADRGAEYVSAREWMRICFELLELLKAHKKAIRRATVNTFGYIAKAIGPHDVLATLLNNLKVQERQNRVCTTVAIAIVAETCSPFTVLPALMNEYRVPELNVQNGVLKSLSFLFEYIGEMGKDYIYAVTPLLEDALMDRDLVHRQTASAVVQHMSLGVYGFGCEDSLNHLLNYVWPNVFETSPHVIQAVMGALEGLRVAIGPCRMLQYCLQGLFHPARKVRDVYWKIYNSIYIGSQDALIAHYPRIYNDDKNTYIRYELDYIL
T1 sequence (Q15393 whole entry, chain 2 of 4, the tested form may be a part): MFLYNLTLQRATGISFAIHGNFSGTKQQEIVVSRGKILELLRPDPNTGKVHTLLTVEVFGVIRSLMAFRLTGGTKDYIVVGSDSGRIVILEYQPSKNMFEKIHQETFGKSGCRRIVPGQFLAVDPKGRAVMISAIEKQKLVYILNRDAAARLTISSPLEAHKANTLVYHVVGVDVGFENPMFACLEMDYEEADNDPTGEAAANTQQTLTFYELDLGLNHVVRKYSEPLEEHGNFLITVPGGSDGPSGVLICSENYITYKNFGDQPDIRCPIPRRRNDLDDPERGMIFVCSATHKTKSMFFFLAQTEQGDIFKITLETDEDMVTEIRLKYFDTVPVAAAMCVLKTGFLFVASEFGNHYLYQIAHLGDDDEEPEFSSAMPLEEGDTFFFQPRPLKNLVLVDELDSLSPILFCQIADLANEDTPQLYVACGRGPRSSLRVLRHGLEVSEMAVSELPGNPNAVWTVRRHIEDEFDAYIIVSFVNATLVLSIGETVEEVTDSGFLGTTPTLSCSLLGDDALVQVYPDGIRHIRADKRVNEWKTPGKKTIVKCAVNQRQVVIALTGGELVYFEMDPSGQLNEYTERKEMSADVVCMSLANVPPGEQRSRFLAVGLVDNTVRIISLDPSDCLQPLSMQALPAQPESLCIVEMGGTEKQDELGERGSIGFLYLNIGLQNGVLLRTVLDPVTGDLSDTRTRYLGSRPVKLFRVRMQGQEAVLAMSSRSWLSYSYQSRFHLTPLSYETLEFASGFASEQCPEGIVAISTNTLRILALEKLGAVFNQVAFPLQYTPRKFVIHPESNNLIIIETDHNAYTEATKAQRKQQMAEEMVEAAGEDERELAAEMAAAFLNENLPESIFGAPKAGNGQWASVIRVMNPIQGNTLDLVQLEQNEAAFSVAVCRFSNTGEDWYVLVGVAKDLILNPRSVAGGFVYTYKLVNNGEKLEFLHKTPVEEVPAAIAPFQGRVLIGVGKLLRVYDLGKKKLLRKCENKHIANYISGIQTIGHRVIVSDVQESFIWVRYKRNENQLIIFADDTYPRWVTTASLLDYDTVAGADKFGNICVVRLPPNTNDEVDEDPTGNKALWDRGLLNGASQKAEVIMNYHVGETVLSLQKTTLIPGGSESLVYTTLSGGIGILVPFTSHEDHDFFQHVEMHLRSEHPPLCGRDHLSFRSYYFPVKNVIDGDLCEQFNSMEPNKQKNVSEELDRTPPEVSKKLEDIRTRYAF
T1 sequence (Q9BWJ5 whole entry, chain 3 of 4, the tested form may be a part): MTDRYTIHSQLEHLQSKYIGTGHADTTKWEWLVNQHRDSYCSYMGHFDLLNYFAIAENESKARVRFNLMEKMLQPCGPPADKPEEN
T1 sequence (Q7RTV0 whole entry, chain 4 of 4, the tested form may be a part): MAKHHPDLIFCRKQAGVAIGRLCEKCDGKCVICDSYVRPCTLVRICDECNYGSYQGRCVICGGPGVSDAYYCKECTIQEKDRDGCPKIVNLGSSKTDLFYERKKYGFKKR

Row | Binder | Kd
1 | B1 | 66 nM
2 | B2 | 23 nM
